Assay results taken from the supplement of paper PMC11246515.
± gives the standard deviation of the averaged measurements.

Assay: total protein half-life in vivo (active degradation + dilution); higher = more stable protein
[1] = E. coli NCM3722 delta-clpP delta-lon delta-hslV, growth: N-lim chemostat, doubling time 6 h
[2] = E. coli NCM3722 delta-hslV, growth: N-lim chemostat, doubling time 6 h
[3] = wild type E. coli NCM3722, growth: C-lim chemostat, doubling time 3 h
[4] = wild type E. coli NCM3722, growth: C-lim chemostat, doubling time 6 h
[5] = wild type E. coli NCM3722, growth: C-lim chemostat, doubling time 12 h
[6] = wild type E. coli NCM3722, growth: N-lim chemostat, doubling time 12 h
[7] = wild type E. coli NCM3722, growth: P-lim chemostat, doubling time 6 h
[8] = E. coli NCM3722 delta-clpP, growth: N-lim chemostat, doubling time 6 h
[9] = E. coli NCM3722 delta-lon, growth: N-lim chemostat, doubling time 6 h
[10] = E. coli NCM3722 delta-smpB, growth: N-lim chemostat, doubling time 6 h
[11] = wild type E. coli NCM3722, growth: N-lim chemostat, doubling time 6 h
[12] = wild type E. coli NCM3722, growth: P-lim chemostat, doubling time 12 h

Row | Sequence | total protein half-life in vivo [1] | total protein half-life in vivo [2] | total protein half-life in vivo [3] | total protein half-life in vivo [4] | total protein half-life in vivo [5] | total protein half-life in vivo [6] | total protein half-life in vivo [7] | total protein half-life in vivo [8] | total protein half-life in vivo [9] | total protein half-life in vivo [10] | total protein half-life in vivo [11] | total protein half-life in vivo [12]
1 | MAIRLYKLAVALGVFIVSAPAFSHGHHSHGKPLTEVEQKAANGVFDDANVQNRTLSDWDGVWQSVYPLLQSGKLDPVFQKKADADKTKTFAEIKDYYHKGYATDIEMIGIEDGIVEFHRNNETTSCKYDYDGYKILTYKSGKKGVRYLFECKDPESKAPKYIQFSDHIIAPRKSSHFHIFMGNDSQQSLLNEMENWPTYYPYQLSSEEVVEEMMSH | 5.56 h | 7.32 ± 0.35 h | 3.24 ± 0.14 h | 6.23 ± 0.17 h | 12.8 ± 0.55 h | > 16 h | 5.89 ± 0.14 h | – | – | – | – | –
2 | MITIDGNGAVASVAFRTSEVIAIYPITPSSTMAEQADAWAGNGLKNVWGDTPRVVEMQSEAGAIATVHGALQTGALSTSFTSSQGLLLMIPTLYKLAGELTPFVLHVAARTVATHALSIFGDHSDVMAVRQTGCAMLCAANVQEAQDFALISQIATLKSRVPFIHFFDGFRTSHEINKIVPLADDTILDLMPQVEIDAHRARALNPEHPVIRGTSANPDTYFQSREATNPWYNAVYDHVEQAMNDFSAATGRQYQPFEYYGHPQAERVIILMGSAIGTCEEVVDELLTRGEKVGVLKVRLYRPFSAKHLLQALPGSVRSVAVLDRTKEPGAQAEPLYLDVMTALAEAFNNGERETLPRVIGGRYGLSSKEFGPDCVLAVFAELNAAKPKARFTVGIYDDVTNLSLPLPENTLPNSAKLEALFYGLGSDGSVSATKNNIKIIGNSTPWYAQGYFVYDSKKAGGLTVSHLRVSEQPIRSAYLISQADFVGCHQLQFIDKYQMAERLKPGGIFLLNTPYSADEVWSRLPQEVQAVLNQKKARFYVINAAKIARECGLAARINTVMQMAFFHLTQILPGDSALAELQGAIAKSYSSKGQDLVERNWQALALARESVEEVPLQPVNPHSANRPPVVSDAAPDFVKTVTAAMLAGLGDALPVSALPPDGTWPMGTTRWEKRNIAEEIPIWKEELCTQCNHCVAACPHSAIRAKVVPPEAMENAPASLHSLDVKSRDMRGQKYVLQVAPEDCTGCNLCVEVCPAKDRQNPEIKAINMMSRLEHVEEEKINYDFFLNLPEIDRSKLERIDIRTSQLITPLFEYSGACSGCGETPYIKLLTQLYGDRMLIANATGCSSIYGGNLPSTPYTTDANGRGPAWANSLFEDNAEFGLGFRLTVDQHRVRVLRLLDQFADKIPAELLTALKSDATPEVRREQVAALRQQLNDVAEAHELLRDADALVEKSIWLIGGDGWAYDIGFGGLDHVLSLTENVNILVLDTQCYSNTGGQASKATPLGAVTKFGEHGKRKARKDLGVSMMMYGHVYVAQISLGAQLNQTVKAIQEAEAYPGPSLIIAYSPCEEHGYDLALSHDQMRQLTATGFWPLYRFDPRRADEGKLPLALDSRPPSEAPEETLLHEQRFRRLNSQQPEVAEQLWKDAAADLQKRYDFLAQMAGKAEKSNTD | 4.62 ± 0.54 h | 2.72 ± 0.21 h | 2.14 ± 0.34 h | 3.35 ± 0.38 h | 5.06 ± 0.26 h | 3.64 ± 0.31 h | 3.77 ± 0.17 h | 3.16 ± 0.26 h | 2.87 ± 0.075 h | 2.17 ± 0.18 h | 2.57 ± 0.12 h | 6.3 ± 0.33 h
3 | MEKNNEVIQTHPLVGWDISTVDSYDALMLRLHYQTPNKSEQEGTEVGQTLWLTTDVARQFISILEAGIAKIESGDFQVNEYRRH [P0AB33] | 4.09 h | – | – | – | – | – | – | – | – | – | – | –
4 | MFRGATLVNLDSKGRLSVPTRYREQLLENAAGQMVCTIDIYHPCLLLYPLPEWEIIEQKLSRLSSMNPVERRVQRLLLGHASECQMDGAGRLLIAPVLRQHAGLTKEVMLVGQFNKFELWDETTWHQQVKEDIDAEQLATGDLSERLQDLSL | 7.01 ± 0.38 h | 6.33 ± 0.068 h | 3.22 ± 0.08 h | 6.14 ± 0.43 h | 12.19 ± 0.11 h | 12.9 ± 0.16 h | 6.8 ± 0.66 h | 6.48 ± 0.5 h | 6.98 ± 0.57 h | 5.69 ± 0.38 h | 5.98 ± 0.57 h | 14.04 ± 0.07 h
5 | MAMPLSLLIGLRFSRGRRRGGMVSLISVISTIGIALGVAVLIVGLSAMNGFERELNNRILAVVPHGEIEAVDQPWTNWQEALDHVQKVPGIAAAAPYINFTGLVESGANLRAIQVKGVNPQQEQRLSALPSFVQGDAWRNFKAGEQQIIIGKGVADALKVKQGDWVSIMIPNSNPEHKLMQPKRVRLHVAGILQLSGQLDHSFAMIPLADAQQYLDMGSSVSGIALKMTDVFNANKLVRDAGEVTNSYVYIKSWIGTYGYMYRDIQMIRAIMYLAMVLVIGVACFNIVSTLVMAVKDKSGDIAVLRTLGAKDGLIRAIFVWYGLLAGLFGSLCGVIIGVVVSLQLTPIIEWIEKLIGHQFLSSDIYFIDFLPSELHWLDVFYVLVTALLLSLLASWYPARRASNIDPARVLSGQ | 5.8 ± 0.74 h | 5.66 ± 0.51 h | 3.32 ± 0.27 h | 5.759 ± 0.033 h | – | 13.9 ± 2.2 h | 6.023 ± 0.042 h | 6.23 ± 0.16 h | 5.4 ± 0.27 h | 5.77 ± 0.5 h | 5.94 ± 0.43 h | 12.2 ± 0.26 h
